Results as given in patent publication US20180244796A1 (CARSGEN THERAPEUTICS, published 2018).

Key:
[1] = molecular target: T1, purified human mesothelin protein (recombinant, 6xHis tag) (human, UniProt Q13421 296-580); test: SPR Biacore T200, antibody captured by anti-human IgG (Fc), human mesothelin as analyte, 25 C
T1 construct: also called hu-mesothelin; human mesothelin recombinant protein
Experimental: To quantitatively analyze the binding of an antibody to human mesothelin, the affinity and kinetic parameters of single-chain antibody and monoclonal antibody of P1A6E and P3F2 were measured by capture method using Biacore T200 system (from GE). An anti-human IgG (Fc) antibody (purchased from GE) was coupled to carboxymethyl dextran surface of sensor chip […] through primary amino with NHS/EDC coupling according to the manufacturer's instructions. Measurements were performed in 1×HBS-EP+working buffer at 25° C., 30 μl/min, and regeneration condition was 3 M MgCl2, 10 μl/min for 30 seconds. In each round of the testing cycle, the antibody to be tested is firstly captured onto the chip. Analyte (human mesothelin) of a certain concentration flowed over the chip surface. Due to the produced SPR signal, the interaction between human mesothelin and the captured antibody can be detected. The detected signal is defined as resonance unit (RU), which was plotted vs time (second) to obtain the corresponding binding curve and dissociation curve. In different test cycles, concentrations of human mesothelin were 10 nM, 20 nM, 40 nM, 80 nM and 160 nM, respectively. The resulting curves were evaluated using Biacore T200 evaluation software and the affinity KD values were calculated. FIG. 5 and FIG. 6 show kinetic curves of the monoclonal antibodies P1A6E and P3F2, in a Biacore Affinity Assay, respectively.

[2] = molecular target: T1, purified human mesothelin protein …; test: flow cytometry; CAR T cells stained with biotinylated human mesothelin recombinant protein and PE-labeled streptavidin
Experimental: Infected CTL cells were detected by flow cytometry on day 8 of culture for the expression of different chimeric antigen receptors. Firstly, the infected CAR T cells were incubated with biotinylated human mesothelin recombinant protein for 1 h at 37° C., washed in D-PBS twice and then incubated with PE-labeled streptavidin for 40 min at 37° C. After washed with D-PBS for 3 times, the ratio of positive cells was determined by flow cytometry. Uninfected T lymphocytes was used as a negative control, the positive rates of virus-infected T cells expressing different chimeric antigen receptors are shown in Table 3.

[3] = molecular target: human mesothelin on PANC-1-MSLN cells (human, UniProt Q13421 296-598); test: cell-based or functional assay
Chain of human mesothelin on PANC-1-MSLN cells (Q13421 other isoform, or with tags, fused parts or gaps limits assumed): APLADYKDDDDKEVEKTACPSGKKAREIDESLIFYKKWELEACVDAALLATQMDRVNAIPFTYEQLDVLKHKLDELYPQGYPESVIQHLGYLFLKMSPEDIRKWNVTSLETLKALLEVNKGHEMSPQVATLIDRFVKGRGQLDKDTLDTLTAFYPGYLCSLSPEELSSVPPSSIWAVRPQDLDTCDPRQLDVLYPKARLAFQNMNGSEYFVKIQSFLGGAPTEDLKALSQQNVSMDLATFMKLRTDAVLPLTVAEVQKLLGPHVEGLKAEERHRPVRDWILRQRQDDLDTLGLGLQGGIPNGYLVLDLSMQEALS

Row | Binder | Kd [1] [nM] | koff [1] [s⁻¹] | kon [1] [M⁻¹ s⁻¹] | Positive rate of CTL cells transfection [2] [%] | also measured
1 | P3F2 monoclonal antibody (antibody, V domains shown, Full antibody: VH in plasmid pIH with human IgG1 CH gene, VL in plasmid pIK with human IgG CL gene; also called monoclonal antibody P3F2) VH: QMQLVQSGAEVKKPGASVKVSCKASGYTFTSYYMHWVRQAPGQGLEWMGIINPSGGSTSYAQKFQGRVTMTRDTSTSTVYMELSSLRSEDTAVYYCASSRSGTTVVNHDAFDIWGKGTTVTVSS VL: DIQLTQSPSSLSASVGDRVTITCRASQVISRALAWYQQTPGKPPKLLIYDASNLQSGVPSRFSGSGSGTDFTLTISRLQPEDFATYYCQQFNSYPLTFGGGTKLEIKR | 7.17 | 0.000789 | 110000 | – | –
2 | chimeric antigen receptor P1A6E-δZ on CTL cells (receptor, Expressed on human CTL cells by lentivirus; also called P1A6E-δZ (negative control); P1A6E-δZ (mock)) QVQLEQSGLGLVKPSQTLSLTCAISGDTVSSDSAAWNWIRQSPSRGLEWLGRTYYRSKWFNDYAVSVKGRITINSDTSKNQFSLQLNSVTPEDTAVYYCARSNSYYYYAMDVWGQGTLVTVSSGGGGSGGGGSGGGGSQAVLTQPSSLSASPGASASLTCTLRSGINVGIYRIYWYQQRPGSPPQILLTYKSDSDKYQGSGVPSRFSGSKDASANAGILLISGLQSEDEADYYCMIWHSGGWVFGGGTKVTVLGTTTPAPRPPTPAPTIASQPLSLRPEACRPAAGGAVHTRGLDFACDIYIWAPLAGTCGVLLLSLVITRVKFSRSADAPA | – | – | – | 75 | –
3 | P1A6E monoclonal antibody (antibody, V domains shown, Full antibody: VH in plasmid pIH with human IgG1 CH gene, VL in plasmid pIK with human IgG CL gene; also called monoclonal antibody P1A6E) VH: QVQLEQSGLGLVKPSQTLSLTCAISGDTVSSDSAAWNWIRQSPSRGLEWLGRTYYRSKWFNDYAVSVKGRITINSDTSKNQFSLQLNSVTPEDTAVYYCARSNSYYYYAMDVWGQGTLVTVSS VL: QAVLTQPSSLSASPGASASLTCTLRSGINVGIYRIYWYQQRPGSPPQILLTYKSDSDKYQGSGVPSRFSGSKDASANAGILLISGLQSEDEADYYCMIWHSGGWVFGGGTKVTVLG | 4.04 | 0.00116 | 288000 | – | –
4 | chimeric antigen receptor P3F2-δZ on CTL cells (receptor, Expressed on human CTL cells by lentivirus; also called P3F2-δZ (negative control); P3F2-δZ (mock)) QMQLVQSGAEVKKPGASVKVSCKASGYTFTSYYMHWVRQAPGQGLEWMGIINPSGGSTSYAQKFQGRVTMTRDTSTSTVYMELSSLRSEDTAVYYCASSRSGTTVVNHDAFDIWGKGTTVTVSSGGGGSGGGGSGGGGSDIQLTQSPSSLSASVGDRVTITCRASQVISRALAWYQQTPGKPPKLLIYDASNLQSGVPSRFSGSGSGTDFTLTISRLQPEDFATYYCQQFNSYPLTFGGGTKLEIKRTTTPAPRPPTPAPTIASQPLSLRPEACRPAAGGAVHTRGLDFACDIYIWAPLAGTCGVLLLSLVITRVKFSRSADAPA | – | – | – | 71 | –
5 | chimeric antigen receptor P3F2-BBZ on CTL cells (receptor, Expressed on human CTL cells by lentivirus; also called scFv(MSLN)-CD8-CD137-CD3 zeta) QMQLVQSGAEVKKPGASVKVSCKASGYTFTSYYMHWVRQAPGQGLEWMGIINPSGGSTSYAQKFQGRVTMTRDTSTSTVYMELSSLRSEDTAVYYCASSRSGTTVVNHDAFDIWGKGTTVTVSSGGGGSGGGGSGGGGSDIQLTQSPSSLSASVGDRVTITCRASQVISRALAWYQQTPGKPPKLLIYDASNLQSGVPSRFSGSGSGTDFTLTISRLQPEDFATYYCQQFNSYPLTFGGGTKLEIKRTTTPAPRPPTPAPTIASQPLSLRPEACRPAAGGAVHTRGLDFACDIYIWAPLAGTCGVLLLSLVITLYCKRGRKKLLYIFKQPFMRPVQTTQEEDGCSCRFPEEEEGGCELRVKFSRSADAPAYKQGQNQLYNELNLGRREEYDVLDKRRGRDPEMGGKPRRKNPQEGLYNELQKDKMAEAYSEIGMKGERRRGKGHDGLYQGLSTATKDTYDALHMQALPPR | – | – | – | 83 | CYTOTOXICITY (%), effector target ratio 1:1, LDH release, 18 h [3]: 60.2%; CYTOTOXICITY (%), effector target ratio 1:3, LDH release, 18 h [3]: 31.9%; CYTOTOXICITY (%), effector target ratio 3:1, LDH release, 18 h [3]: 89.3%
